Data from PMC10279719 (Nature Communications, 2023).
Non-standard residues stand in square brackets, D forms with d. pY = N[C@@H](Cc1ccc(OP(=O)(O)O)cc1)C(=O)O

What was measured:
[1] = biological target: T1, CrkII SH2 domain (CrkII^SH2, residues 6-120) (human, UniProt P46108-1 6-120, biotin (EZ-Link NHS-PEG4-Biotin, 1:1 molar ratio) where it was immobilised (a1)); assay: SPR; biotinylated adapter proteins captured with a biotin CAPture kit, pY peptides as analytes; Biacore 8K+, 20 °C, HBS-TP (20 mM HEPES pH 7.4, 150 mM NaCl, 1 mM TCEP, 0.005% Tween-P20) with 2% DMSO; 1 M NaCl regeneration; steady state, 1:1 model; conditions: both partners purified
T1 construct: human CrkII SH2 domain, UniProt P46108-1, residues 6-120; The His tag is TEV-cleavable and was cleaved 'when required'

[2] = biological target: T2, Grb2 SH2 domain (Grb2^SH2) (human, UniProt P62993-1 60-152, biotin (EZ-Link NHS-PEG4-Biotin, 1:1 molar ratio) where it was immobilised (a1)); assay: as above; conditions: both partners purified
T2 construct: SH2 domain of human Grb2; This construct is not in the list of the methods; the other adapter constructs were made in E. coli C41 (DE3) with an N-terminal His8 tag

[3] = biological target: T3, full length CrkII, monomer (CrkII^FL monomer) (human, UniProt P46108-1 1-304, biotin (EZ-Link NHS-PEG4-Biotin, 1:1 molar ratio) where it was immobilised (a1)); assay: as above; conditions: both partners purified
T3 construct: full length human CrkII, printed as UniProt P46108-1, residues 1-330

[4] = biological target: T4, full length CrkII, dimer (CrkII^FL dimer) (human, UniProt P46108-1 1-304, biotin (EZ-Link NHS-PEG4-Biotin, 1:1 molar ratio) where it was immobilised (a1)); assay: as above; conditions: both partners purified
T4 construct: full length human CrkII, printed as UniProt P46108-1, residues 1-330

[5] = biological target: T5, full length Grb2 (Grb2^FL, residues 1-217) (human, UniProt P62993-1 1-217, biotin (EZ-Link NHS-PEG4-Biotin, 1:1 molar ratio) where it was immobilised (a1)); assay: as above; conditions: both partners purified
T5 construct: full length human Grb2, UniProt P62993-1, residues 1-217

[6] = biological target: the molecule itself; assay: SEC-MALS; Superdex 200 Increase 10/300 GL, 20 mM HEPES pH 7.5, 150 mM NaCl, 1 mM TCEP, 0.5 ml/min
[7] = biological target: T6, CrkII NSH3 domain (CrkII^NSH3, residues 134–191) (human, UniProt P46108-1 134-191); assay: SPR; Biacore S200; CrkII^NSH3 amine coupled to CM5, peptides injected; 20 °C, HBS-TP (20 mM HEPES pH 7.4, 150 mM NaCl, 1 mM TCEP, 0.005% Tween-P20); steady-state 1:1 fit; conditions: both partners purified
T6 construct: human CrkII residues 134-191, N-terminal SH3 domain

[8] = biological target: T6, CrkII NSH3 domain (CrkII^NSH3, residues …); assay: as above; conditions: both partners purified; remark: listed apart in the source
[9] = biological target: T6, CrkII NSH3 domain (CrkII^NSH3, residues …); assay: ITC; ternary, sequential; CrkII^NSH3 (400 μM, syringe) titrated into the peptide (16.8 µM) left in the cell after a first titration with 14-3-3ɣ; 25 °C, 20 mM HEPES pH 7.4, 150 mM NaCl, 1 mM TCEP; conditions: both partners purified

B1: PEAK3 23-38-pY24 peptide (Ac-T(pY)SNLGQIRAHLLPSK-NH2) (peptide)
peptide: Ac-T[pY]SNLGQIRAHLLPSK-NH2
SMILES: CC[C@H](C)[C@H](NC(=O)[C@H](CCC(N)=O)NC(=O)CNC(=O)[C@H](CC(C)C)NC(=O)[C@H](CC(N)=O)NC(=O)[C@H](CO)NC(=O)[C@H](Cc1ccc(OP(=O)(O)O)cc1)NC(=O)[C@@H](NC(C)=O)[C@@H](C)O)C(=O)N[C@@H](CCCNC(=N)N)C(=O)N[C@@H](C)C(=O)N[C@@H](Cc1c[nH]cn1)C(=O)N[C@@H](CC(C)C)C(=O)N[C@@H](CC(C)C)C(=O)N1CCC[C@H]1C(=O)N[C@@H](CO)C(=O)N[C@@H](CCCCN)C(N)=O
notes: source: synthetic peptide, bought: Mimotopes (95% purity)
Kd [1]: 5.3 µM | Kd [2]: 4.2 µM | Kd [3]: 6.8 µM | Kd [4]: 6.2 µM | Kd [5]: 2.2 µM

B2: PEAK2IDR1 (PEAK2 residues 802-1406) (domain or fragment, human, UniProt Q86YV5 802-1406, looked up)
chain: EDVSPSGPQQPPPLPQKKIVSRAASSPDGFFWTQGSPKPGTASPKLNLSHSETNVHDESHFSYSLSPGNRHHPVFSSSDPLEKAFKGSGHWLPAAGLAGNRGGCGSPGLQCKGAPSASSSQLSVSSQASTGSTQLQLHGLLSNISSKEGTYAKLGGLYTQSLARLVAKCEDLFMGGQKKELHFNENNWSLFKLTCNKPCCDSGDAIYYCATCSEDPGSTYAVKICKAPEPKTVSYCSPSVPVHFNIQQDCGHFVASVPSSMLSSPDAPKDPVPALPTHPPAQEQDCVVVITREVPHQTASDFVRDSAASHQAEPEAYERRVCFLLLQLCNGLEHLKEHGIIHRDLCLENLLLVHCTLQAGPGPAPAPAPAPAPAAAAPPCSSAAPPAGGTLSPAAGPASPEGPREKQLPRLIISNFLKAKQKPGGTPNLQQKKSQARLAPEIVSASQYRKFDEFQTGILIYELLHQPNPFEVRAQLRERDYRQEDLPPLPALSLYSPGLQQLAHLLLEADPIKRIRIGEAKRVLQCLLWGPRRELVQQPGTSEEALCGTLHNWIDMKRALMMMKFAEKAVDRRRGVELEDWLCCQYLASAEPGALLQSLKLLQLL
modifications: phosphorylated at the tandem site 14-3-3 motif (RAASSP) by LC MS/MS
notes: PEAK2 (SgK223, PRAG1), human, UniProt Q86YV5, residues 802-1406; Homodimer by SEC-MALS; TEV-cleavable tag
stoichiometry N [6]: 2

B3: PEAK3^54–66 peptide (Ac-PLPPPLPKKILTR-NH2) (peptide)
peptide: Ac-PLPPPLPKKILTR-NH2
notes: also called PEAK3 PRM peptide; source: synthetic peptide, bought: Mimotopes
Kd [7]: 1.7 µM

B4: PEAK2^709–721 peptide (Ac-FSPPPPPPKSRHL-NH2) (peptide)
peptide: Ac-FSPPPPPPKSRHL-NH2
notes: human PEAK2 (SgK223, PRAG1) residues 709-721; also called second PRM of PEAK2; source: synthetic peptide, bought: Mimotopes
Kd [8]: 13 µM

B5: PEAK3^tandem peptide, non-phosphorylated (residues 54–74; Ac-PLPPPLPKKILTRTQSLPTRR-NH2) (peptide)
peptide: Ac-PLPPPLPKKILTRTQSLPTRR-NH2
notes: source: synthetic peptide, bought: Mimotopes
Kd [9]: 0.7 µM
